In PMC7593816:

How the values were obtained:
[1] = molecular target: HTR2A N107A^2.37 mutant (human) (UniProt P28223)
[2] = molecular target: HTR2A R185A^ICL2 mutant (human) (UniProt P28223)

## Gαq wild-type (GαrLuc8 of the BRET2 assay) (from UniProt P50148 1-359) (natural protein)
[1]
  BRET2 assay, decrease of the efficacy of 25CN-NBOH: 50%
[2]
  BRET2 assay, decrease of the efficacy of 25CN-NBOH: 50%
